Data on seven molecules can be found in US20090252683A1 (Amgen, published 2009).

In assay [1] the target is T1, human EpCAM antigen on Kato III cells or human EpCAM transfected CHO cells (human, UniProt P16422 24-265).
T1 construct: 137 holds only the extracellular portion; the protein stood whole on cells
T1 sequence: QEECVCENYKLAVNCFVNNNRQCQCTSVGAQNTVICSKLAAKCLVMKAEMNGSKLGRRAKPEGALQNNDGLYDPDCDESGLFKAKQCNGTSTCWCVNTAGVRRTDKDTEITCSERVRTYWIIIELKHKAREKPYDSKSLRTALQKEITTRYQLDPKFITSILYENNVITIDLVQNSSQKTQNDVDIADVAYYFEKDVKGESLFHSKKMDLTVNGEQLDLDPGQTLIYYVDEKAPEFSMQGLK
The assay is described as follows: FACS, Kato III cells (FIG. 8A), anti-His detection. The text has this: (§1) FIG. 8: FACS assay for binding of 2G8LH×SEQ ID NO. 12, 2G8LH×SEQ ID NO. 10, 2G8LH×SEQ ID NO. 16, 2G8LH×SEQ ID NO. 14, 2G8HL×SEQ ID NO. 12, 2G8HL×SEQ ID NO. 10, 2G8HL×SEQ ID NO. 16 and 2G8HL×SEQ ID NO. 14 on Kato III (FIG. 8A) cells or cynomolgus EpCAM transfected CHO cells (FIG. 8B) and HPB-ALL cells. Antigen binding was clearly detectable for the anti EpCAM specificities as well as for the anti CD3 specificities. As a negative control for binding to cynomolgus EpCAM, the 5-10LH×SEQ ID NO.
(§2) Binding of the bifunctional constructs from cell culture supernatants or binding of purified bifunctional constructs to the human EpCAM antigen on Kato III cells or cynomolgus EpCAM transfected CHO cells and to the CD3 antigen on HPB-ALL cells was tested using an FACS assay. For that purpose 2.5×10⁵ cells were incubated with 50 μl supernatant or with 5 μg/ml of the purified constructs in 50 μl PBS with 2% FCS. The binding of the constructs was detected with an anti-His antibody (Penta-His Antibody, BSA free, obtained from Qiagen GmbH, Hilden, FRG) at 2 μg/ml in 50 μl PBS with 2% FCS. […] The samples were measured on a FACSscan (BD biosciences, Heidelberg, FRG). Antigen binding was clearly detectable for the anti EpCAM specificities as well as for the anti CD3 specificities (see FIG. 8). As a negative control for binding to cynomolgus EpCAM, the 5-10LH×SEQ ID NO. […] The 5-10LH part only binds to human EpCAM.

Assay [2] deals with T2, cynomolgus EpCAM antigen on transfected CHO cells (cynomolgus, UniProt Q1WER1 24-265 (rhesus entry)).
T2 construct: 48 holds the extracellular portion
T2 sequence: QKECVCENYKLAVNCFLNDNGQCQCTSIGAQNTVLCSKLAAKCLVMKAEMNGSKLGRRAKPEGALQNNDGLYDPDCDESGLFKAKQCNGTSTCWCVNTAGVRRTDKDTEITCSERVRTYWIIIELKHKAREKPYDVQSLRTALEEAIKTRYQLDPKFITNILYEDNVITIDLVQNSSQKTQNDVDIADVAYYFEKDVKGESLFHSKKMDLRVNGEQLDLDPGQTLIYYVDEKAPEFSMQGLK
The assay can be described thus: FACS, cynomolgus EpCAM transfected CHO cells (FIG. 8B), anti-His detection.
Source text: as §1, §2

Assay [3] deals with T2, cynomolgus EpCAM antigen on transfected …. The assay is described as follows: cell-based or functional assay.
Assay [4] deals with cynomolgus CD3 antigen on cynomolgus PBMC / macaque T cells (Macaca fascicularis (cynomolgus), UniProt Q95LI5 22-117; Q95LI7 23-110; Q95LI8 22-103). The assay is described as follows: cell-based or functional assay.
Sequence of cynomolgus CD3 antigen on cynomolgus PBMC / macaque T cells (Q95LI5 22-117, chain 1 of 3): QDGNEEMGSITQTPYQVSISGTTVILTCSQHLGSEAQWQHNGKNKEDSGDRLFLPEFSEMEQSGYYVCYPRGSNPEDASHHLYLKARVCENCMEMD
Sequence of cynomolgus CD3 antigen on cynomolgus PBMC / macaque T cells (Q95LI7 23-110, chain 2 of 3): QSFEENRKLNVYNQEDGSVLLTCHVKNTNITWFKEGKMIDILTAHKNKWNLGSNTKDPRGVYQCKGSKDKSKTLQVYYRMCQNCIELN
Sequence of cynomolgus CD3 antigen on cynomolgus PBMC / macaque T cells (Q95LI8 22-103, chain 3 of 3): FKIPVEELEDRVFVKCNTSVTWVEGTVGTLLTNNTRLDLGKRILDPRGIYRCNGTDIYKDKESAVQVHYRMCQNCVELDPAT

B1: 2G8LH×SEQ ID NO. 16 bispecific single chain antibody (bispecific antibody)
chain: DVVMTQTPLTLSVTIGQPASISCKSSQSLLYSNGKTYLNWILQRPGQSPKRLIYLVSKLDSGVPDRFTGSGSGTDFTLKISRVEAEDLGVYYCVQGTHFPLTFGAGTKLELKGGGGSGGGGSGGGGSEVQLQQSGAELVRSGASVKLSCTASGFNIKDYYLHWVKQRPEQGLEWIAWIDLENGDIKYAPKFQGKATITADTSSNTAYLQLSSLTSEDTAVYYCNPYYYGSNYDYAMDYWGQGTSVTVSSGGGGSQVVLTQSPAIMSAFPGEKVTMTCSASSSVSYMNWYQQKSGTSPKRWIYDSSKLASGVPARFSGSGSGTSYSLTISSMETEDAATYYCQQWSRNPPTFGGGTKLQITGGGGSGGGGSGGGGSQVQLQQSGAELARPGASVKMSCKASGYTFTRSTMHWVKQRPGQGLEWIGYINPSSAYTNYNQKFKDKATLTADKSSSTAYMQLSSLTSEDSAVYYCASPQVHYDYNGFPYWGQGTLVTVSAHHHHHH
Regarding B1, the binding result in assay [1] and in assay [2] was “binds” in each case.

B2: 2G8HL×SEQ ID NO. 10 bispecific single chain antibody (bispecific antibody)
chain: EVQLQQSGAELVRSGASVKLSCTASGFNIKDYYLHWVKQRPEQGLEWIAWIDLENGDIKYAPKFQGKATITADTSSNTAYLQLSSLTSEDTAVYYCNPYYYGSNYDYAMDYWGQGTSVTVSSGGGGSGGGGSGGGGSDVVMTQTPLTLSVTIGQPASISCKSSQSLLYSNGKTYLNWILQRPGQSPKRLIYLVSKLDSGVPDRFTGSGSGTDFTLKISRVEAEDLGVYYCVQGTHFPLTFGAGTKLELKSGGGGSEVKLLESGGGLVQPKGSLKLSCAASGFTFNTYAMNWVRQAPGKGLEWVARIRSKYNNYATYYADSVKDRFTISRDDSQSILYLQMNNLKTEDTAMYYCVRHGNFGNSYVSWFAYWGQGTLVTVSAGGGGSGGGGSGGGGSQAVVTQESALTTSPGETVTLTCRSSTGAVTTSNYANWVQEKPDHLFTGLIGGTNKRAPGVPARFSGSLIGDKAALTITGAQTEDEAIYFCALWYSNLWVFGGGTKLTVLHHHHHH
For the molecule B2, the binding result in assay [1] and in assay [2] was “binds” each time.

B3: 2G8HL×SEQ ID NO. 16 bispecific single chain antibody (bispecific antibody)
chain: EVQLQQSGAELVRSGASVKLSCTASGFNIKDYYLHWVKQRPEQGLEWIAWIDLENGDIKYAPKFQGKATITADTSSNTAYLQLSSLTSEDTAVYYCNPYYYGSNYDYAMDYWGQGTSVTVSSGGGGSGGGGSGGGGSDVVMTQTPLTLSVTIGQPASISCKSSQSLLYSNGKTYLNWILQRPGQSPKRLIYLVSKLDSGVPDRFTGSGSGTDFTLKISRVEAEDLGVYYCVQGTHFPLTFGAGTKLELKSGGGGSQVVLTQSPAIMSAFPGEKVTMTCSASSSVSYMNWYQQKSGTSPKRWIYDSSKLASGVPARFSGSGSGTSYSLTISSMETEDAATYYCQQWSRNPPTFGGGTKLQITGGGGSGGGGSGGGGSQVQLQQSGAELARPGASVKMSCKASGYTFTRSTMHWVKQRPGQGLEWIGYINPSSAYTNYNQKFKDKATLTADKSSSTAYMQLSSLTSEDSAVYYCASPQVHYDYNGFPYWGQGTLVTVSAHHHHHH
In the case of B3, the binding result in assay [1] and in assay [2] was “binds” each time.

B4: 2G8HL×SEQ ID NO. 14 bispecific single chain antibody (bispecific antibody)
chain: EVQLQQSGAELVRSGASVKLSCTASGFNIKDYYLHWVKQRPEQGLEWIAWIDLENGDIKYAPKFQGKATITADTSSNTAYLQLSSLTSEDTAVYYCNPYYYGSNYDYAMDYWGQGTSVTVSSGGGGSGGGGSGGGGSDVVMTQTPLTLSVTIGQPASISCKSSQSLLYSNGKTYLNWILQRPGQSPKRLIYLVSKLDSGVPDRFTGSGSGTDFTLKISRVEAEDLGVYYCVQGTHFPLTFGAGTKLELKSGGGGSQVQLQQSGAELARPGASVKMSCKASGYTFTRSTMHWVKQRPGQGLEWIGYINPSSAYTNYNQKFKDKATLTADKSSSTAYMQLSSLTSEDSAVYYCASPQVHYDYNGFPYWGQGTLVTVSAGGGGSGGGGSGGGGSQVVLTQSPAIMSAFPGEKVTMTCSASSSVSYMNWYQQKSGTSPKRWIYDSSKLASGVPARFSGSGSGTSYSLTISSMETEDAATYYCQQWSRNPPTFGGGTKLQITHHHHHH
As to B4, the binding result in assay [1] and in assay [2] was “binds” throughout.

B5: 2G8LH×SEQ ID NO. 12 bispecific single chain antibody (bispecific antibody)
chain: DVVMTQTPLTLSVTIGQPASISCKSSQSLLYSNGKTYLNWILQRPGQSPKRLIYLVSKLDSGVPDRFTGSGSGTDFTLKISRVEAEDLGVYYCVQGTHFPLTFGAGTKLELKGGGGSGGGGSGGGGSEVQLQQSGAELVRSGASVKLSCTASGFNIKDYYLHWVKQRPEQGLEWIAWIDLENGDIKYAPKFQGKATITADTSSNTAYLQLSSLTSEDTAVYYCNPYYYGSNYDYAMDYWGQGTSVTVSSGGGGSQAVVTQESALTTSPGETVTLTCRSSTGAVTTSNYANWVQEKPDHLFTGLIGGTNKRAPGVPARFSGSLIGDKAALTITGAQTEDEAIYFCALWYSNLWVFGGGTKLTVLGGGGSGGGGSGGGGSEVKLLESGGGLVQPKGSLKLSCAASGFTFNTYAMNWVRQAPGKGLEWVARIRSKYNNYATYYADSVKDRFTISRDDSQSILYLQMNNLKTEDTAMYYCVRHGNFGNSYVSWFAYWGQGTLVTVSAHHHHHH
Take B5: the binding result in assay [1] and in assay [2] was “binds” in each case.

B6: 2G8LH×SEQ ID NO. 10 bispecific single chain antibody (bispecific antibody)
chain: DVVMTQTPLTLSVTIGQPASISCKSSQSLLYSNGKTYLNWILQRPGQSPKRLIYLVSKLDSGVPDRFTGSGSGTDFTLKISRVEAEDLGVYYCVQGTHFPLTFGAGTKLELKGGGGSGGGGSGGGGSEVQLQQSGAELVRSGASVKLSCTASGFNIKDYYLHWVKQRPEQGLEWIAWIDLENGDIKYAPKFQGKATITADTSSNTAYLQLSSLTSEDTAVYYCNPYYYGSNYDYAMDYWGQGTSVTVSSGGGGSEVKLLESGGGLVQPKGSLKLSCAASGFTFNTYAMNWVRQAPGKGLEWVARIRSKYNNYATYYADSVKDRFTISRDDSQSILYLQMNNLKTEDTAMYYCVRHGNFGNSYVSWFAYWGQGTLVTVSAGGGGSGGGGSGGGGSQAVVTQESALTTSPGETVTLTCRSSTGAVTTSNYANWVQEKPDHLFTGLIGGTNKRAPGVPARFSGSLIGDKAALTITGAQTEDEAIYFCALWYSNLWVFGGGTKLTVLHHHHHH
On to B6, for which the “EC50 (half maximal killing), FACS-based cytotoxicity, cynomolgus EpCAM transfected CHO target cells, cynomolgus PBMC effector cells” value in assay [3] and in assay [4] was 0.0398 µg/mL each time. The “EC50 (half maximal killing), FACS-based cytotoxicity, cynomolgus EpCAM transfected CHO target cells, human PBMC effector cells” value in assay [3] turned out to be 0.0011 µg/mL. The binding result in assay [1] is reported as “binds”.

B7: 2G8LH×SEQ ID NO. 14 bispecific single chain antibody (bispecific antibody)
chain: DVVMTQTPLTLSVTIGQPASISCKSSQSLLYSNGKTYLNWILQRPGQSPKRLIYLVSKLDSGVPDRFTGSGSGTDFTLKISRVEAEDLGVYYCVQGTHFPLTFGAGTKLELKGGGGSGGGGSGGGGSEVQLQQSGAELVRSGASVKLSCTASGFNIKDYYLHWVKQRPEQGLEWIAWIDLENGDIKYAPKFQGKATITADTSSNTAYLQLSSLTSEDTAVYYCNPYYYGSNYDYAMDYWGQGTSVTVSSGGGGSQVQLQQSGAELARPGASVKMSCKASGYTFTRSTMHWVKQRPGQGLEWIGYINPSSAYTNYNQKFKDKATLTADKSSSTAYMQLSSLTSEDSAVYYCASPQVHYDYNGFPYWGQGTLVTVSAGGGGSGGGGSGGGGSQVVLTQSPAIMSAFPGEKVTMTCSASSSVSYMNWYQQKSGTSPKRWIYDSSKLASGVPARFSGSGSGTSYSLTISSMETEDAATYYCQQWSRNPPTFGGGTKLQITHHHHHH
As to B7, the binding result in assay [1] and in assay [2] was “binds” each time.
